From patent US20250206823A1 (published 2025)

Molecular target: CD33 naturally expressed on HL60 cells (human, UniProt P20138 18-364)
Experiment: FACS

Sequence of CD33 naturally expressed on HL60 cells (P20138 18-364): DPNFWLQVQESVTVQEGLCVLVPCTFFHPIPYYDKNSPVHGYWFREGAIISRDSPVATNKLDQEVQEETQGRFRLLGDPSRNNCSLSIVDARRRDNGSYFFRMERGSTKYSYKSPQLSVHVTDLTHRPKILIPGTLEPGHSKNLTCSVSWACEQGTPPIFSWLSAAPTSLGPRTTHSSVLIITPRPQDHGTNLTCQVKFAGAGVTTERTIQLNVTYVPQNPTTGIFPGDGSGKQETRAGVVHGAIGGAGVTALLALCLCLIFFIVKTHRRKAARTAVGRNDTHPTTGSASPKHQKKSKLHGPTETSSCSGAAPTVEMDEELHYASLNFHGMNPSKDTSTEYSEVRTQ

- EC50: 11.4 nM
B1: CD33/CD16A bispecific antibody QP411543674368 (FC with L234A/L235A mutation for eliminating function) (bispecific antibody)
scFv: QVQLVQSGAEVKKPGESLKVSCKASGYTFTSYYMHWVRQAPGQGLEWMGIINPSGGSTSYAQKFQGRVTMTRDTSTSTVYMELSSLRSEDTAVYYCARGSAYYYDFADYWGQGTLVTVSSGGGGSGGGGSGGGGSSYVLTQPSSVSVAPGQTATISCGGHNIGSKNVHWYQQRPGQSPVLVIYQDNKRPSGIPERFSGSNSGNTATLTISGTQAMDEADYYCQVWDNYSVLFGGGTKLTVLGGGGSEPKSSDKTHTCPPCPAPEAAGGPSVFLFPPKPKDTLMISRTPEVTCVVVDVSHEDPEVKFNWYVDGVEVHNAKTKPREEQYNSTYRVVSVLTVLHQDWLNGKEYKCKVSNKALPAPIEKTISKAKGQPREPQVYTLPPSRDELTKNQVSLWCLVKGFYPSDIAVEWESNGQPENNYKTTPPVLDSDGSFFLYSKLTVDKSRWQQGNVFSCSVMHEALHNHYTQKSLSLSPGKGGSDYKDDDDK
heavy: QVQLVQSGAEVKKPGESVKVSCKASGYTFTNYGMNWVKQAPGQGLEWMGWINTYTGEPTYADKFQGRVTMTTDTSTSTAYMEIRNLGGDDTAVYYCARWSWSDGYYVYFDYWGQGTSVTVSSASTKGPSVFPLAPSSKSTSGGTAALGCLVKDYFPEPVTVSWNSGALTSGVHTFPAVLQSSGLYSLSSVVTVPSSSLGTQTYICNVNHKPSNTKVDKKVEPKSCDKTHTCPPCPAPEAAGGPSVFLFPPKPKDTLMISRTPEVTCVVVDVSHEDPEVKFNWYVDGVEVHNAKTKPREEQYNSTYRVVSVLTVLHQDWLNGKEYKCKVSNKALPAPIEKTISKAKGQPREPQVYTLPPSREEMTKNQVSLSCAVKGFYPSDIAVEWESNGQPENNYKTTPPVLDSDGSFFLVSKLTVDKSRWQQGNVFSCSVMHEALHNRYTQKSLSLSPGKGGSHHHHHH
light: DIVMTQSPDSLTVSLGERTTINCKSSQSVLDSSTNKNSLAWYQQKPGQPPKLLLSWASTRESGIPDRFSGSGSGTDFTLTIDSPQPEDSATYYCQQSAHFPITFGQGTRLEIKRTVAAPSVFIFPPSDEQLKSGTASVVCLLNNFYPREAKVQWKVDNALQSGNSQESVTEQDSKDSTYSLSSTLTLSKADYEKHKVYACEVTHQGLSSPVTKSFNRGEC
